Data reported in the supplement of paper PMC11865577.

Assays:
Experiment in all cases: pull-down binding Z-score (relative to library population); higher = stronger binding
[1] = test system: G-clamp-N3 (biotin conjugate); conditions: RNA library: Library-1 (pre-miRNA loops + repeats)
How it was run: (§1)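 The RNA library, end-labelled with Cy5 or Cy3, was heat-folded in phosphate/NaCl/KCl buffer, and 1 μg was incubated at 25 °C for 60 min with streptavidin beads carrying 100 pmol of biotin-conjugated small molecule. Hot SDS released the bound RNA, which was then hybridised to a DNA barcode microarray for 20 h at 55.5 °C. For scoring binding, signal from beads alone was subtracted, replicate barcoded probes were averaged after discarding the highest and lowest, and each value was turned into a Z-score from the library mean and standard deviation.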

[2] = test system: TO-3-N3 (biotin conjugate); conditions: RNA library: Library-2
How it was run: as §1

[3] = test system: TO-3-N3-2 (biotin conjugate); conditions: RNA library: Library-2
How it was run: as §1

[4] = test system: TO-N3 (biotin conjugate); conditions: RNA library: Library-2
How it was run: as §1

[5] = test system: TO-N3-2 (biotin conjugate); conditions: RNA library: Library-2
How it was run: as §1

CUGUAUGUCCUAACAGUGCUUGUAG [hsa-mir-4794]
pull-down binding Z-score [1]: -0.4 | pull-down binding Z-score [2]: -0.28 | pull-down binding Z-score [3]: -0.0698 | pull-down binding Z-score [4]: 0.0771 | pull-down binding Z-score [5]: 0.46

CUGUCCCCUGCCACUGGGUGACC [hsa-mir-7114]
pull-down binding Z-score [1]: -0.449 | pull-down binding Z-score [2]: 0.262 | pull-down binding Z-score [3]: 0.144 | pull-down binding Z-score [4]: 0.471 | pull-down binding Z-score [5]: 0.894

CUGUCCUGGACUGGGGUCAGACUGUGCCCCGAGGAGAAGCAG [hsa-mir-922]
pull-down binding Z-score [1]: 0.368 | pull-down binding Z-score [2]: -0.2 | pull-down binding Z-score [3]: -0.166 | pull-down binding Z-score [4]: 0.794 | pull-down binding Z-score [5]: 1.47

CUGUCUGUUGUAUAAAAGAAAAGAUCG [hsa-mir-517a]
pull-down binding Z-score [1]: -0.46 | pull-down binding Z-score [2]: 0.157 | pull-down binding Z-score [3]: 0.743 | pull-down binding Z-score [4]: 0.594 | pull-down binding Z-score [5]: 1

CUGUCUGUUGUCUAAGAAAAGAUCG [hsa-mir-517c_517b]
pull-down binding Z-score [1]: 0.565 | pull-down binding Z-score [2]: -0.481 | pull-down binding Z-score [3]: 0.294 | pull-down binding Z-score [4]: -0.0242 | pull-down binding Z-score [5]: 0.202

CUGUGAAUCCAAGAUCCACA [hsa-mir-4527]
pull-down binding Z-score [1]: -1.57 | pull-down binding Z-score [2]: -0.439 | pull-down binding Z-score [3]: -0.489 | pull-down binding Z-score [4]: -0.39 | pull-down binding Z-score [5]: -0.241

CUGUGACGUGCUCCAUCACCGGGCAG [hsa-mir-3714]
pull-down binding Z-score [1]: 0.138 | pull-down binding Z-score [2]: -0.37 | pull-down binding Z-score [3]: -0.391 | pull-down binding Z-score [4]: -0.0254 | pull-down binding Z-score [5]: 0.847

CUGUGAGGACAUCCAGGGUCACAG [hsa-mir-125a]
pull-down binding Z-score [1]: 3.76 | pull-down binding Z-score [2]: 0.423 | pull-down binding Z-score [3]: 0.169 | pull-down binding Z-score [4]: 0.903 | pull-down binding Z-score [5]: 0.969

CUGUGAUAACAACUCAG [hsa-mir-4705]
pull-down binding Z-score [1]: -1.06 | pull-down binding Z-score [2]: 0.564 | pull-down binding Z-score [3]: -0.23 | pull-down binding Z-score [4]: 0.29 | pull-down binding Z-score [5]: -0.508

CUGUGCAGAACAUCCGCUCACCUGUACAG [hsa-mir-214]
pull-down binding Z-score [1]: 0.104 | pull-down binding Z-score [2]: 0.0427 | pull-down binding Z-score [3]: -0.43 | pull-down binding Z-score [4]: 0.0753 | pull-down binding Z-score [5]: 0.171

CUGUGCAGGGCCAACUGUGCACAC [hsa-mir-3681]
pull-down binding Z-score [1]: 0.785 | pull-down binding Z-score [2]: 0.827 | pull-down binding Z-score [3]: 0.227 | pull-down binding Z-score [4]: 1.15 | pull-down binding Z-score [5]: 1.14

CUGUGCUGUCUCUGAGCACCG [hsa-mir-6827]
pull-down binding Z-score [1]: 0.0113 | pull-down binding Z-score [2]: 0.0475 | pull-down binding Z-score [3]: -0.348 | pull-down binding Z-score [4]: 0.322 | pull-down binding Z-score [5]: 0.586

CUGUGGCCGGUCCCAG [hsa-mir-4656]
pull-down binding Z-score [1]: -0.405 | pull-down binding Z-score [2]: 1.39 | pull-down binding Z-score [3]: -0.0683 | pull-down binding Z-score [4]: 1.45 | pull-down binding Z-score [5]: 0.902

CUGUGGUCUAACCUUUCCCAUCU [hsa-mir-6828]
pull-down binding Z-score [1]: -1.45 | pull-down binding Z-score [2]: -0.163 | pull-down binding Z-score [3]: 0.125 | pull-down binding Z-score [4]: 0.169 | pull-down binding Z-score [5]: 0.334

CUGUGGUGGCUGCUCAUGCACCACGG [hsa-mir-105-1]
pull-down binding Z-score [1]: 1.44 | pull-down binding Z-score [2]: -0.868 | pull-down binding Z-score [3]: -0.574 | pull-down binding Z-score [4]: -1.05 | pull-down binding Z-score [5]: -0.558

CUGUGGUGGCUGCUUAUGCACCACGG [hsa-mir-105-2]
pull-down binding Z-score [1]: 1.15 | pull-down binding Z-score [2]: 0.62 | pull-down binding Z-score [3]: -0.102 | pull-down binding Z-score [4]: 0.363 | pull-down binding Z-score [5]: -0.626

CUGUGGUUUGCUGGCUGCCUCAG [hsa-mir-6736]
pull-down binding Z-score [1]: -0.566 | pull-down binding Z-score [2]: 0.2 | pull-down binding Z-score [3]: -0.353 | pull-down binding Z-score [4]: 0.467 | pull-down binding Z-score [5]: 0.776

CUGUGUGAGGACUAGAGGCGG [hsa-mir-4523]
pull-down binding Z-score [1]: 1.39 | pull-down binding Z-score [2]: 0.0476 | pull-down binding Z-score [3]: 0.44 | pull-down binding Z-score [4]: 0.511 | pull-down binding Z-score [5]: 1.05

CUGUUCAGGACAAUGCCGUUGUACA [hsa-mir-199a-2]
pull-down binding Z-score [1]: 0.637 | pull-down binding Z-score [2]: -0.355 | pull-down binding Z-score [3]: -0.27 | pull-down binding Z-score [4]: 0.16 | pull-down binding Z-score [5]: 0.838

CUGUUCAGGACUCCCAAAUUGUACAG [hsa-mir-199b]
pull-down binding Z-score [1]: -0.893 | pull-down binding Z-score [2]: 1.12 | pull-down binding Z-score [3]: 0.385 | pull-down binding Z-score [4]: 1 | pull-down binding Z-score [5]: 0.347

CUGUUCAGGAGGCUCUCAAUGUGUACA [hsa-mir-199a-1]
pull-down binding Z-score [1]: -0.113 | pull-down binding Z-score [2]: 0.518 | pull-down binding Z-score [3]: 0.404 | pull-down binding Z-score [4]: 0.947 | pull-down binding Z-score [5]: 0.656

CUGUUGAAAGAAAAG [hsa-mir-526a-2]
pull-down binding Z-score [1]: -0.371 | pull-down binding Z-score [2]: 0.496 | pull-down binding Z-score [3]: 0.511 | pull-down binding Z-score [4]: 1.01 | pull-down binding Z-score [5]: 0.598

CUGUUGUGCCUAAUUCAGAG [hsa-mir-296]
pull-down binding Z-score [1]: -0.279 | pull-down binding Z-score [2]: -0.165 | pull-down binding Z-score [3]: 0.0218 | pull-down binding Z-score [4]: 0.0489 | pull-down binding Z-score [5]: 0.492

CUGUUGUUUCAGCUCGACAACAACAG [hsa-mir-3937]
pull-down binding Z-score [1]: 0.361 | pull-down binding Z-score [2]: -0.212 | pull-down binding Z-score [3]: -0.335 | pull-down binding Z-score [4]: -0.333 | pull-down binding Z-score [5]: -0.505

CUGUUUCUGGUGAAAUAUUCAAACAG [hsa-mir-4433a]
pull-down binding Z-score [1]: -0.293 | pull-down binding Z-score [2]: 0.27 | pull-down binding Z-score [3]: -0.178 | pull-down binding Z-score [4]: -0.0687 | pull-down binding Z-score [5]: 0.256

CUGUUUGUUGUCUGAGAAAAAACA [hsa-mir-520g_520h]
pull-down binding Z-score [1]: 1.11 | pull-down binding Z-score [2]: -0.638 | pull-down binding Z-score [3]: -0.125 | pull-down binding Z-score [4]: -0.598 | pull-down binding Z-score [5]: -0.229

CUUAAGUGGUUCGGGUAAAUCACUUUAA [hsa-mir-3977]
pull-down binding Z-score [1]: -1.04 | pull-down binding Z-score [2]: -0.623 | pull-down binding Z-score [3]: -0.186 | pull-down binding Z-score [4]: -0.623 | pull-down binding Z-score [5]: -0.585

CUUAAUAGAUUAAUAUUUGUAAG [hsa-mir-506]
pull-down binding Z-score [1]: 0.431 | pull-down binding Z-score [2]: -0.743 | pull-down binding Z-score [3]: -0.335 | pull-down binding Z-score [4]: -0.877 | pull-down binding Z-score [5]: -1.02

CUUACUGCCCGGGCCGCCCUCAGUAA [hsa-mir-212]
pull-down binding Z-score [1]: -1.81 | pull-down binding Z-score [2]: 0.545 | pull-down binding Z-score [3]: 0.033 | pull-down binding Z-score [4]: 1.17 | pull-down binding Z-score [5]: 1.45

CUUACUGUACACGUGGCUGGCAAG [hsa-mir-4428]
pull-down binding Z-score [1]: -0.412 | pull-down binding Z-score [2]: -0.0149 | pull-down binding Z-score [3]: 0.108 | pull-down binding Z-score [4]: 0.588 | pull-down binding Z-score [5]: 1.09

CUUAGAUUUUUCCAUCUUUGUAUCUAG [hsa-mir-29b-2]
pull-down binding Z-score [1]: 0.453 | pull-down binding Z-score [2]: -0.805 | pull-down binding Z-score [3]: -0.236 | pull-down binding Z-score [4]: -0.995 | pull-down binding Z-score [5]: -0.98

CUUAGUAGGUGAUAGCAUGACUGAC [hsa-mir-5002]
pull-down binding Z-score [1]: 1.66 | pull-down binding Z-score [2]: 0.324 | pull-down binding Z-score [3]: 0.356 | pull-down binding Z-score [4]: 0.958 | pull-down binding Z-score [5]: 1.16

CUUCACUGGUGCAGUAAGAAG [hsa-mir-7853]
pull-down binding Z-score [1]: -0.0639 | pull-down binding Z-score [2]: -0.0978 | pull-down binding Z-score [3]: -0.195 | pull-down binding Z-score [4]: -0.253 | pull-down binding Z-score [5]: -0.23

CUUCAGAGCAGGGUUUGGUCUGUGCUUCUCUG [hsa-mir-6719]
pull-down binding Z-score [1]: 0.184 | pull-down binding Z-score [2]: -0.415 | pull-down binding Z-score [3]: -0.245 | pull-down binding Z-score [4]: -0.222 | pull-down binding Z-score [5]: 0.452

CUUCAGCCCCAGGAAGCCUUGGUCGGGGGCAGGAG [hsa-mir-647]
pull-down binding Z-score [1]: 0.744 | pull-down binding Z-score [2]: 0.309 | pull-down binding Z-score [3]: -0.171 | pull-down binding Z-score [4]: 0.594 | pull-down binding Z-score [5]: 0.849

CUUCCCAUUUAAAAGUAAUGGCACA [hsa-mir-603]
pull-down binding Z-score [1]: -2.03 | pull-down binding Z-score [2]: 0.893 | pull-down binding Z-score [3]: 0.425 | pull-down binding Z-score [4]: 0.861 | pull-down binding Z-score [5]: 0.104

CUUCCUGAGCACGCUCAUGAUGAGCAAACUGAGCCUCUAAG [hsa-mir-3653]
pull-down binding Z-score [1]: -0.859 | pull-down binding Z-score [2]: 0.463 | pull-down binding Z-score [3]: 0.277 | pull-down binding Z-score [4]: 0.596 | pull-down binding Z-score [5]: 0.429
